T1: CD40L (UniProt P29965 1-261, limits assumed)
T1 construct: whole, on cells; also called cytokine over-expressing Expi293 cells (CD40L)
T1 sequence (looked up): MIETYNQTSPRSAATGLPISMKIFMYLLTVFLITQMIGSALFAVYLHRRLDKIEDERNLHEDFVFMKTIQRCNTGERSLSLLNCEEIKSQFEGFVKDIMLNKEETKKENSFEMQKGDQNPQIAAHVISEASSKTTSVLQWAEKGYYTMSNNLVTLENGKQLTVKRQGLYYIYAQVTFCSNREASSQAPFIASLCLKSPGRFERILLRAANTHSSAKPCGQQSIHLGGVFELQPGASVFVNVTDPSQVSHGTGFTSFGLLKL

B1: CD40L-341 (antibody, V domains shown)
VH: EVQLLESGGGLVQPGGSLRLSCAASGFTFRSYAMTWVRQAPGKGLEWVSAISGSGDRTYYGDSVKGRFTISRDNSKNTLYLQMNSLRAEDTAVYYCARIARSEDFWSGYYTDFDFDYWGQGTLVTVSS
VL: DIQMTQSPSSLSASVGDRVTITCRASQSISTYLNWYQQKPGKAPKLLIYRASTLQSGVPSRFSGSGSGTDFTLTISSLQPEDFATYYCQQSYSNPPTFGQGTKVEIK
B2: CD40L-378 (antibody, V domains shown)
VH: EVQLLESGGGLVQPGGSLRLSCAASGFTFRSYAMTWVRQAPGKGLEWVSAISGSGDRTYYGDSVKGRFTISRDNSKNTLYLQMNSLRAEDTAVYYCARIARSEDFWSGYYTDFDFDYWGQGTLVTVSS
VL: DIQMTQSPSSLSASVGDRVTITCRASQSISTYLNWYQQKPGKAPKLLIYRASTLQSGVPSRFSGSGSGTDFTLTISSLQPEDFATYYCQQSYSNPPTFGGGTKVEIK
B3: CD40L-348 (antibody, V domains shown)
VH: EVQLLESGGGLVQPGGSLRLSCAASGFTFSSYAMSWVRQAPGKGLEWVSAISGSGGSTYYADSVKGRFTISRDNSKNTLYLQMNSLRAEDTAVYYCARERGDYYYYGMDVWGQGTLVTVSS
VL: DIQMTQSPSSLSASVGDRVTITCRASQTISNFLNWYQQKPGKAPKLLIYAASTLQYGVPSRFSGSGSGTDFTLTISSLQPEDFATYYCQQNYRSPLTFGGGTKVEIK
B4: CD40L-345 (antibody, V domains shown)
VH: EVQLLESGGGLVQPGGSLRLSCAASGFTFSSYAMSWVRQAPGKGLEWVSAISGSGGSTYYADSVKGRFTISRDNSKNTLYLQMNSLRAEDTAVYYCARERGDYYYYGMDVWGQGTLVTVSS
VL: DIQMTQSPSSLSASVGDRVTITCRASQTISNFLNWYQQKPGKAPKLLIYAASTLQYGVPSRFSGSGSGTDFTLTISSLQPEDFATYYCQQNYRSPLTFGQGTKVEIK
B5: CD40L-386 (antibody, V domains shown)
VH: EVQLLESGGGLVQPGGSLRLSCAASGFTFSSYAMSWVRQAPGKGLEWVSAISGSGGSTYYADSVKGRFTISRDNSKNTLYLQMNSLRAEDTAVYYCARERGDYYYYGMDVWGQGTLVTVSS
VL: DIQMTQSPSSLSASVGDRVTITCRASESITTYLNWYQQKPGKAPKLLIYTASGLQSGVPSRFSGSGSGTDFTLTISSLQPEDFATYYCQQSYTVPITFGGGTKVEIK
B6: CD40L-429 (antibody, V domains shown)
VH: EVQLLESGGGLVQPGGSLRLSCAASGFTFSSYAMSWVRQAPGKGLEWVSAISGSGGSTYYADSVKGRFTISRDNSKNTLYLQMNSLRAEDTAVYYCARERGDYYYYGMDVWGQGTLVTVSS
VL: DIQMTQSPSSLSASVGDRVTITCRASQTISYYLNWYQQKPGKAPKLLIYDATSLQSGVPSRFSGSGSGTDFTLTISSLQPEDFATYYCQQTYSLPLTFGGGTKVEIK
B7: CD40L-347 (antibody, V domains shown)
VH: EVQLLESGGGLVQPGGSLRLSCAASGFTFSNYAMSWVRQAPGKGLEWVSAITGSGSTTYYADSVKGRFTISRDNSKNTLYLQMNSLRAEDTAVYYCARAHDYDSMLMDYWGQGTLVTVSS
VL: DIQMTQSPSSLSASVGDRVTITCRASQSIGTFLNWYQQKPGKAPKLLIYGTSNLQSGVPSRFSGSGSGTDFTLTISSLQPEDFATYYCQQGYRTPLTFGGGTKVEIK
B8: CD40L-349 (antibody, V domains shown)
VH: EVQLLESGGGLVQPGGSLRLSCAASGFGFSSYAMSWVRQAPGKGLEWVSAISGGGGSIYYADSVKGRFTISRDNSKNTLYLQMNSLRAEDTAVYYCATDYGDYDRLNFDLWGQGTLVTVSS
VL: DIQMTQSPSSLSASVGDRVTITCRASQTIGSYLNWYQQKPGKAPKLLIYAASTLQPGVPSRFSGSGSGTDFTLTISSLQPEDFATYYCQQSYETPLTFGGGTKVEIK
B9: CD40L-350 (antibody, V domains shown)
VH: EVQLLESGGGLVQPGGSLRLSCAASGLTFGSYAMSWVRQAPGKGLEWVSAISGSVGSTYYADSVKGRFTISRDNSKNTLYLQMNSLRAEDTAVYYCARHGGYYYYYMDVWGQGTLVTVSS
VL: DIQMTQSPSSLSASVGDRVTITCRASQSISSYVSWYQQKPGKAPKLLIYDASSLSGGVPSRFSGSGSGTDFTLTISSLQPEDFATYYCQQSYRIPLTFGGGTKVEIK
B10: CD40L-437 (antibody, V domains shown)
VH: EVQLLESGGGLVQPGGSLRLSCAASGFSFSSYAMAWVRQAPGKGLEWVSSISGSGGGGNTYYADSVKGRFTISRDNSKNTLYLQMNSLRAEDTAVYYCARHHERDYYGMDVWGQGTLVTVSS
VL: DIQMTQSPSSLSASVGDRVTITCRASQTISNFLNWYQQKPGKAPKLLIYAASTLQYGVPSRFSGSGSGTDFTLTISSLQPEDFATYYCQQTYSFPLTFGGGTKVEIK
B11: CD40L-354 (antibody, V domains shown)
VH: EVQLLESGGGLVQPGGSLRLSCAASGFSFSSYAMAWVRQAPGKGLEWVSSISGSGGGGNTYYADSVKGRFTISRDNSKNTLYLQMNSLRAEDTAVYYCARHHERDYYGMDVWGQGTLVTVSS
VL: DIQMTQSPSSLSASVGDRVTITCRASQSIGEYLNWYQQKPGKAPKLLIYSASSLQNGVPSRFSGSGSGTDFTLTISSLQPEDFATYYCQQTYSFPLTFGGGTKVEIK
B12: CD40L-396 (antibody, V domains shown)
VH: EVQLLESGGGLVQPGGSLRLSCAASGFSFSSYAMAWVRQAPGKGLEWVSSISGSGGGGNTYYADSVKGRFTISRDNSKNTLYLQMNSLRAEDTAVYYCARHHERDYYGMDVWGQGTLVTVSS
VL: DIQMTQSPSSLSASVGDRVTITCRASQRISRYLNWYQQKPGKAPKLLIYRASTLQSGVPSRFSGSGSGTDFTLTISSLQPEDFATYYCQQSHSSPLTFGGGTKVEIK
B13: CD40L-355 (antibody, V domains shown)
VH: EVQLLESGGGLVQPGGSLRLSCAASGFIFSNYDMSWVRQAPGKGLEWVSGISGSGGSTSYADSVKGRFTISRDNSKNTLYLQMNSLRAEDTAVYYCARHGGYNPYGLDYWGQGTLVTVSS
VL: DIQMTQSPFSLSASVGDRVTITCRASQNILTYLNWYQQKPGKAPKLLIYGASTLRSGVPSRFSGSGSGTDFTLTISSLQPEDFATYYCQQSYRLPLTFGGGTKVEIK
B14: CD40L-358 (antibody, V domains shown)
VH: EVQLLESGGGLVQPGGSLRLSCAASGFTFSTYAMNWVRQAPGKGLEWVSAISGSGGTTYYADSVKGRFTISRDNSKNTLYLQMNSLRAEDTAVYYCARGPNNWNYVSFDYWGQGTLVTVSS
VL: DIQMTQSPSSLSASVGDRVTITCRASQYIGTYLNWYQQKPGKAPKLLIYAAANLQSGVPSRFSGSGSGTDFTLTISSLQPEDFATYYCQQSYSIPLTFGGGTKVEIK
B15: CD40L-359 (antibody, V domains shown)
VH: EVQLLESGGGLVQPGGSLRLSCAASGYTFSSYAMSWVRQAPGKGLEWVSGISGGGTSTYYADSVKGRFTISRDNSKNTLYLQMNSLRAEDTAVYYCARFGNHYDRTGYSDYWGQGTLVTVSS
VL: DIQMTQSPSSLSASVGDRVTITCRASQNIGGYLNWYQQKPGKAPKLLIYGASRLQSGVPSRFSGSGSGTDFTLTISSLQPEDFATYYCQQSYSTPFTFGGGTKVEIK
B16: CD40L-360 (antibody, V domains shown)
VH: EVQLLESGGGLVQPGGSLRLSCAASGFTFGRYAMSWVRQAPGKGLEWVSDISGSGGSTYYADSVKGRFTISRDNSKNTLYLQMNSLRAEDTAVYYCARDGFRWGRAEYFQHWGQGTLVTVSS
VL: DIQMTQSPSSLSASVGDRVTITCRASQTISSYLSWYQQKPGKAPKLLIYDASTLQSGVPSRFSGSGSGTDFTLTISSLQPEDFATYYCQQSYRIPLTFGGGTKVEIK
B17: CD40L-418 (antibody, V domains shown)
VH: EVQLLESGGGLVQPGGSLRLSCAASGFTFGRYAMSWVRQAPGKGLEWVSDISGSGGSTYYADSVKGRFTISRDNSKNTLYLQMNSLRAEDTAVYYCARDGFRWGRAEYFQHWGQGTLVTVSS
VL: DIQMTQSPSSLSASVGDRVTITCRASESITTYLNWYQQKPGKAPKLLIYTASGLQSGVPSRFSGSGSGTDFTLTISSLQPEDFATYYCQQSYTVPITFGGGTKVEIK
B18: CD40L-362 (antibody, V domains shown)
VH: EVQLLESGGGLVQPGGSLRLSCAASGFTFTSYAMSWVRQAPGKGLEWVSGISGSGINTYYADSVKGRFTISRDNSRNTLYLQMNSLRAEDTAVYYCVRSSWSDVWGQGTLVTVSS
VL: DIQMTQSPSSLSASVGDRVTITCRASQNIINYLNWYQQKPGKAPKLLIYGASTLESGVPSRFSGSGSGTDFTLTISSLQPEDFATYYCQQSYSVPLTFGGGTKVEIK
B19: CD40L-363 (antibody, V domains shown)
VH: EVQLLESGGGLVQPGGSLRLSCAASGFTFSDYDMSWVRQAPGKGLEWVSGISGSGATTYYADSVKGRFTISRDNSKNTLYLQMNSLRAEDTAVYYCARDSSGSYYYPLDYWGQGTLVTVSS
VL: DIQMTQSPSSLSASVGDRVTITCRTSQSISSYANWYQQKPGKAPKLLIYGASRLESGVPSRFSGSGSGTDFTLTISSLQPEDFATYYCQQTYSTPWTFGGGTKVGIK
B20: CD40L-364 (antibody, V domains shown)
VH: EVQLLESGGGLVQPGGSLRLSCAASGFTFSPYAMSWVRQAPGKGLEWVSSITGTGGSTYYADSVKGRFTISRDNSKNTLYLQMNSLRAEDTAVYYCARSWASEDFDWLPNFDFWGQGTLVTVSS
VL: DIQMTQSPSSLSASVGDRVTITCRVSQSISSYLHWYQQKPGKAPKLLIYAASSLQTGVPSRFSGSGSGTDFTLTISSLQPEDFATYYCQQSYTLPLTFGGGTKVEIK
B21: CD40L-365 (antibody, V domains shown)
VH: EVQLLESGGGLVQPGGSLRLSCAASGFTFSYYAMTWVRQAPGKGLEWVSGISGSGGSSYYADSVKGRFTISRDNSKNTLYLQMNSLRAEDTAVYYCARSHDYDRQTFDYWGQGTLVTVSS
VL: DIQMTQSPSSLSASVGDRVTITCRASQSIATYLHWYQQKPGKAPKLLIYSASTLESGVPSRFSGSGSGTDFTLTISSLQPEDFATYYCQQSYRPPLTFGGGTKVEIK
B22: CD40L-366 (antibody, V domains shown)
VH: EVQLLESGGGLVQPGGSLRLSCAASGFGFSSYAMSWVRQAPGKGLEWVSAITGSGSTTYYADSVKGRFTISRDNSKNTLYLQMNSLRAEDTAVYYCARAHDYDSMLMDYWGQGTLVTVSS
VL: DIQMTQSPSSLSASVGDRVTITCRASQSVSRFLNWYQQKPGKAPKLLIYAASTLQPGVPSRFSGSGSGTDFTLTISSLQPEDFATYYCQQSYETPLTFGGGTKVEIK

These binders were tested against T1, CD40L (assay: flow cytometry, 100 nM IgG, CD40L over-expressing Expi293 cells over parent Expi293 cells).
Protocol: All incubations and washes were in buffer containing PBS+1% BSA. MFI Ratio is defined by the mean fluorescence intensity (MFI) of the cytokine over-expressing Expi293 cell over the Expi293 parent cell. […] EC50 was calculated in GraphPad Prism.
In the case of B1, the “100 nM FACS (MFI Ratio)” value is reported as 125 MFI ratio.
With B2 the “100 nM FACS (MFI Ratio)” value was 8.1 MFI ratio.
B3 was tested, and the “100 nM FACS (MFI Ratio)” value was 6.2 MFI ratio.
With B4 the “100 nM FACS (MFI Ratio)” value was 7.7 MFI ratio.
With B5 the “100 nM FACS (MFI Ratio)” value was 1.6 MFI ratio.
B6 was tested, and the “100 nM FACS (MFI Ratio)” value was 5 MFI ratio.
In the case of B7, the “100 nM FACS (MFI Ratio)” value is reported as 11.6 MFI ratio.
With B8 the “100 nM FACS (MFI Ratio)” value was 5.8 MFI ratio.
For B9, the “100 nM FACS (MFI Ratio)” value was 66.4 MFI ratio.
B10 was tested, and the “100 nM FACS (MFI Ratio)” value was 4.3 MFI ratio.
For B11, the “100 nM FACS (MFI Ratio)” value was 6.9 MFI ratio.
B12 was tested, and the “100 nM FACS (MFI Ratio)” value was 6.2 MFI ratio.
In the case of B13, the “100 nM FACS (MFI Ratio)” value is reported as 7.6 MFI ratio.
B14 was tested, and the “100 nM FACS (MFI Ratio)” value was 4.2 MFI ratio.
In the case of B15, the “100 nM FACS (MFI Ratio)” value is reported as 5.1 MFI ratio.
B16 was tested, and the “100 nM FACS (MFI Ratio)” value was 15.4 MFI ratio.
With B17 the “100 nM FACS (MFI Ratio)” value was 3.6 MFI ratio.
B18 was tested, and the “100 nM FACS (MFI Ratio)” value was 1060 MFI ratio.
B19 was tested, and the “100 nM FACS (MFI Ratio)” value was 3 MFI ratio.
For B20, the “100 nM FACS (MFI Ratio)” value was 6.8 MFI ratio.
B21 was tested, and the “100 nM FACS (MFI Ratio)” value was 4.6 MFI ratio.
B22 was tested, and the “100 nM FACS (MFI Ratio)” value was 43 MFI ratio.
